Percent of expressed monomers polymerized to oligomers above the dimer data for one substance are collected here from PMC4479010.

The target of this assay is GFP monomer (GFP 11 linked to the N terminus of GFP 1–10), net charge −3 [GFP: P42212]. Nature of the assay: PAGE with 0.1% SDS + SEC; GFP oligomer mixture; SEC on Superdex 200 10/300 GL, 0.5 ml/min, 500 mM NaCl, 50 mM Tris pH 8.0 or PBS.

In the case of “GFP monomer (GFP 11 linked to the N terminus of GFP 1–10), net charge −3 (from UniProt P42212 215-230; P42212 1-214) (designed binder)”, the percent of expressed monomers polymerized to oligomers above the dimer worked out at 50%.
